Measured values as given in the nanobody polyreactivity screen of Harvey et al. (2022).

Test: yeast display, Sf9 membrane polyspecificity reagent, FACS + sequencing; frameworks hold sequencing errors
Summary of the method: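 A synthetic nanobody library was expressed on Saccharomyces cerevisiae BJ5465 by galactose induction for 36–48 hours. The library was stained for 1 hour at 4 °C with 10% biotinylated, detergent-solubilized Sf9 membrane reagent and enriched with streptavidin microbeads before FACS. Low and high (top ~1%) gates were set on anti-HA fluorescence for expression and streptavidin fluorescence for reagent binding, and each polyreactivity label reflects the gate of origin.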

Sequence	polyreactivity (PSR sort gate)
QVQLVESGGGLVQAGGSLRLSCAASGFIFGKYAMGWYRQAPRKERELGAAISKSGGSTYYADSVKGRFTISRDNAKNTVYLQMNSLKPEDTAVYYCAARSLGHYGSWGQGTQVTVSS	high polyreactivity
QVQLVESGGGLVQAGGSLRLSCAASGSTSYVYATGGYRQAPGKERELVAAISGSGGRTYYADSVKGRFTISRDNAKNTVYLQMNSLKPEDTAVYYCNALPRPSYPFDYWGQGTQVTVSS	high polyreactivity
KVQLVESGGGLVQAGGSLRLSCAASGFTFYIYAMGWYRPAPGKEREVVAAISARGGSTYYADSVKGRFTISRDNAKTTGYLQMNSLKPEDTAVDYCNALYIYAEIYGRGFWGQGTQVTVSS	high polyreactivity
QVQLVESGGGLVQAGGSLRLSCAASGRTFKRFAMGWYRQAPGKERELVAAITWSGGNTYYADSVKGRFTISRDNAKNTVYLQMNSLKPEDTAVYYCAAKGAGRRYDSWGQGTQVTVSS	high polyreactivity
QVQLVESGGGLVQAGGSLRLSCAASGSTLGPYAMGWYRQAPGKERELVATINSSGSTNYADSVKGRFTISRDNAKNPVYLQMNSLKPEDTAVYYCATLHYYYWYDYWGQGTQVTVSS	low polyreactivity
QVQLVESGGGLVQAGGSLRLSCAASGGTFDVNAMGWYRQAPGKERELVAAITWSGGNTYYADSVKGRFTISRDNAKNTVYLQMTSLKPEDTAVYYCATDFSPVYYTRYDYWGQGTQVTVSS	low polyreactivity
QVQLVESGGGLVQAGGSLRLSCAASGIIFTGYTMGWYRQAPGKERELVAAITWRGGSTYYADSVKGRFTISRDNAKNTVYLQMNSLKPEDTAVYYCAAEGWYSWDDDYWGQGTQVTVSS	low polyreactivity
QVQLVESGGGLDQAGGSLRLSCAASGNTFIRNALGWYRQAPGIERELVAAITSGTSTYYADSVKGRFTISRDNAQKTVYLQMNSLKPEDTALYYCAKRRNYWHYYWGQGTQVTVSS	high polyreactivity
QVQLVESGGGLVQARGSLRLSCAASGRIFDRYDMGCYRQAPGKEREFVASITWSDGSTYYADSVKGRFTISRDYAKNTVYLQMNSLKPEDTAVYYCNADYVYYYIPVVYEYDYWGQGTQVTVSS	high polyreactivity
QVQLVESGGGLVQAGGSLRLSCAASGFTFKFNTMGWYRQAPGKERELVAAISWRGGDTSYADSVKGRFTISRDNAKNTVYLQMNSLKPEDTAVYYCAASPRYPYWYDYWGQGTQVTVSS	low polyreactivity
QVQLVESGGGLVQAGGSLRLSCAASGRIFAWYTMVWYRQAPGKERELVATISSSGGSTYYADSVKGLFTISRDNAKNTVYLQMNSLKPEDTAVYYCAAQYYPYSYAHRYGYCGQGTQVTVSS	high polyreactivity
QVQLVESGGGLVQAGGSIRLSCAASGITFYRNARGWYRQAPGKEMELVAAITWNGGRTYYADSVKGRFTISRDNAKNTVYLQMNSLKPEDTAVYYCAAAYPTYRHYYWGQGTQVTVSS	low polyreactivity
QFQLVESGGGLVQAGGSLRLSCAASGRILSGNAMGWYRQAPGKERELVAAITNAGITKYADSVKGRFTISRDNAKNTVYLQMNSLKPEDTAVYYCATDRYAYNLYDYWGQGTQVTVSS	low polyreactivity
QVHLVESGGGLVQAGGSLRLICAAYRRTLGGNAMGWYRQAPGKERELVAPITHSASTYADSVKGRFTISRDNAKNTVYLQMNSLKPEDTAVYYCNAPDPSDQHGDYWGQGTQVTVSS	low polyreactivity
HVQLVESGGGLVQAGGSLRLSCAASGRIFLRYAMGWYRQAPGKERELVAVISSGGSTYYADSVKGRFTISRDNAKNTVYLQMHSLKPEDSAVYYCAARRHDSRYQYDYWGQGTQVSVSS	high polyreactivity
QVQLVESGGGLVQAGGSLRLSCAASGSIFGYYAMGWYRQAPGKERELVAAITSGGNTYYADSVKGRFTISRDNAKNTVYLQMNSLKPEDTAVSYCAAEFWYTYPYLVDYWGQGTQVTVSS	low polyreactivity
QVQHVESGGGLVQARGSLRLSCAASGFTFLAYAMGWYRQAPGKERELVAAINSSDCTTHYADSVKGRFTISRDYAKNTVYLQMNSLKPVDTAVYYCNTDWAYLSDYWGQGTQVTVSS	low polyreactivity
QVQLVESGGGIVQAAGSLRLSCAASGFTIYYYAMVWYRQAPGKERELVASITSGGSTYYADSVKGRFTISRDNAKNTVYLQMNSLKPEDTAVYYCAITRFHSKEGVYWGQGTQVTVSS	low polyreactivity
QVQLVESGGGLVQAGGSLRLSCAASGSTFGRNAMGWYRQAPGKERELVAAISWSASRTYYADSVKGRFTISRDNAKNTVYLQMNSLIPDDTAVYYCAAEYDVGYFGYEYWGQGTQVTVSS	high polyreactivity
HVQLQESDGGLVQAGGSLRLSCAASGSISPQYYMCWYRQAPGKEREFVAISKGTTTYYADSVKGRLTISRVNAKNTVYLQMNSLKPEDTAVYCCAAGRWLQKVHAYWDQGTQVTVSS	low polyreactivity
QVQLVESGGGLVQAGGSLRLSCAASGRTFRRNTMGWYRQAPGQEWELVAAISSSGSSTYYADSVKGRFTISRDNAKNTVYLQMKSLKPEDTAVYYCAATGYPRFGYWGQGTQVTVSS	high polyreactivity
QVQLVESGGGLVQAGGSLRLSCAASGSTFSDNVMGWYRQAPGKERELVAGITRSGGRTYYADSVKGRFTISRDNAKNTVDLQMNSLKPEDTEVYYCAARRSGSKSGLFDYWGQGTQVTVSS	low polyreactivity

Sequence	polyreactivity (PSR sort gate)
QVQLVESGGGLVQAGGSLRLSCAASGFTFRGYAMGWYRQAPGKERELVAAISWRGGSTYYADSVKGRFTISRDNAKNTVYLQMNSLKPEDTAVYYCAARYGRSYFGYYYWGQGTQVTVSS	high polyreactivity
QVQLVESGPGLFQAGGSLRLSCAASGNIFGYNVMAWYRQAPGKERELVAAITWSAGTTNYADSLKGRFTISRDNAKNTVYLQRNSLKPEDTAVYYFAVTWWYQDYDLTCYLYDYWGQGTEVTVSS	low polyreactivity
QVQLVESGGGLVQAGGSLRLSCAASGLTFYSYAMGWYRQAPGKERELVATIRWSGGSTYYADSVKGRFTISRDNAKNTVYLQMNSLKPEDTAVYYCATSSTHSRGDEYWGQGTQVTVSS	low polyreactivity
QVQLVESGGGLVMAGGRLRLSCAASGSTFGYYAMGWYRQAPGKERELVAVITTRVGSTYYADSVKGRFTFSRDNAKNTVYLQMNSLKPEDTAVYYCNASGRTRSYSGSFSKHYYWGQGTQVTVSS	high polyreactivity
QVQLVESGGGLVQAGGSLRLSCAASGLIFYRYAMGWYRQAPGKERELVAAISSGGSTYYADSVKGRFTISRDNAKNTVYLQMNSLKPEDTAVYYCNAKVYGRRYDYWGQGTQVTVSS	high polyreactivity
QVQLVESGGRLVQAGGSLRLSCAASVRIFFQNAMGWSRQAPGKERELVAGISGSGGSTYYADSVKGRFTISRDNAKNTVYLQMNSLKPEDTAVYYCAARYGIISSFEYDYWGQGTQVTVSS	high polyreactivity
QVQLVESGGGLVQAGGSLRLSCAASGFIFARNAMGWYRQAPGKERELVARITKRGGSTFYADSVKGRFTISRDNAKNTVYLQMNSLKPEDPAVYYCNADGYHGHVEGDYWGQGTQVTVSS	high polyreactivity
QVQLVESGGGLVQAGGSLRLSCAASGGIFSVYAMGWYRQAPGKEREFVAAISKSGGRTYYADSVKGRFTISRDNAKNTVYLQMNSLKPEDTAVYYWNVVRRSPGDYSYYYWGQGTQVTVSS	low polyreactivity
QDQHVESGGGLVQAGGSLRLSCAASGSTFDAYAMGWYRQAPGKERELVAAISWSDTTTYYADSVKGRFTISRDNAKNTVYLQMNSLKPEDTAVYYCADEYYFTEGSYTSDYWGQGTQVTVSS	high polyreactivity
QVQLVESGGGLVQAGGSLRLSCAASGRIFYGNAMGWYRQAPGKERELVATISSSGGRTTYADSVKGRFTISRDNAKNTVYLQMNSLKPEDTAVYYCADQGYWTGYDYWGQGTQVTVSS	high polyreactivity
QVQLVESGGGLVQAGGSLRLSCAASGGTFYAYAMGWYRQAPGKERELVAAITRSGGRPYYADSVKGRVTISRDNAKNTVYLQMNSLKPEDTEVYYCAADPHHYSGLDYWGQGTHVTVSS	low polyreactivity
QVQLVESGGGLVQAGGSLRLSCAASGTTYYNAMGWYRQAPGKERELVAAIRFRSGSTYYADSVKGRFTISRDNAKNTVYLQMNSLKPEDTAVYYFAADNKRSWRYAYNYWGQGTQVTVSS	high polyreactivity
QVQLVESGGGLVQAGGSLRLSCAASGITFRRNAMGWYRQAQGKESQLVAAITSRGGSTYYADSVKWRFTISRDNAKNTVYLQMISMKPEDTAVYYCNAGGVDRVDRDYWGQGTQVTVSS	high polyreactivity
QVQLVESVGGLVQAGGSLRLSCAASGITSYRYTKGWYRQAPGKARELVAAITISGGRTYYGDSVKGRFTISRDNAKNTVYLQLNSLKPEDTAVYYCAAGWRSGFDYWGQGTQVTVSS	high polyreactivity
QVQLVESGGGLVQAGGSLRLRCAASGRIFDWYALGWNRQAPGQERELVAAITSGGSTYYADSVKGRFTISRDNAKNTVYLQMNSLKTEDTAVYYCAADLYYWGDSDYWGQGTQVTVSS	low polyreactivity
QVQLVDSGGGLVQAGGSLRLSCAASGRTFYWYTMGWYRQAPGKERELVAAISTRGVRTYYADSVKGRFTISRDNAKNTVYLQMNSLKPADTAVYYCNDEYNPTYYTSHDDSDYWGQGTLVTVSS	low polyreactivity
QVQLVESGGGLVQAGGSLRLSCAASGFTFVSNAMGWYRQAPGKERELVADITSDGSTNYADSVKGRFTISRDNAKNTVYLQMNSLKPEDTAVYYCATDQRSHTWVNQFDYWGQGTQVTVSS	low polyreactivity
QVQLVESGGGLVQAGGSLRLSCAASGFTFWEYAMGWYRQAPGKERELVAAISRGTSTYYADSVKGRFTISRDNAKNTVYLQMNSLKPEDTAVYYCAAAPSYYPARHGYWGQGTQVTVSS	low polyreactivity
QVQLVESGGGLVQAGGSLRLSCAASGRIFVTYAMGWYRQAPGKERELVAAITSRGGRTYDADSVKGRFTISRDNAKNTVYLQMNSLKPEDTAVYYCAAYPGPGARYYYWGQGTQVTVSS	high polyreactivity
QVQLVESGGGLDQAGGSLRLSCAASGRTFYTYVMGWYRQAPGKEREFLAAITYSGGSTYYADSVKGRFTISRDNAKNTVYLQMNSLKTEDSAVYYCNAEWTYSEWYGQYLEFDYWGQGTQVTVSS	high polyreactivity
QVRLVESGGGLVQAGGSLRLSCAASGFIFWRNAMGWYRQAPGKERELVAAITSGGSTNYADSVKGRFTISRDNAKNTVYLQMNSLKPVDTAVYYCAARQWFSHRRWGGSRYDYWGQGTQVTVSS	low polyreactivity
